Assay results: patent US7799901B2, “Modulators of the function of FAS receptors and other proteins” (Yeda Research and Development Co. Ltd., priority 1995, dated 2010)

B1: MORT-1: Mediator of Receptor-induced Toxicity; protein binding the intracellular domain of FAS-R, SEQ ID NO:2 (protein)
chain: VNQAPECRFGGGILGPLGKRRDLARASEPRTEGARRAGPQPRPLADPAMDPFLVLLHSVSSSLSSSELTELKFLCLGRVVKRKLERVQSGLDLFSMLLEQNDLEPGHTELLRELLASLRRHDLLRRVDDFEAGAAAGAAPGEEDLCAAFNVICDNVGKDWRRLARQLKVSDTKIDSIEDRYPRNLTERVRESLRIWKNTEKENATVAHLVGALRSCQMNLVADLVQEVQQARDLQNRSGAMSPMSWNSDASTSEAS
B2: MACHα1 (C360S): MACHα1 mutant in which the catalytic cysteine Cys360 is replaced by Ser (protein)
chain: MDFSRNLYDIGEQLDSEDLASLKFLSLDYIPQRKQEPIKDALMLFQRLQEKRMLEESNLSFLKELLFRINRLDLLITYLNTRKEEMERELQTPGRAQISAYRVMLYQISEEVSRSELRSFKFLLQEEISKCKLDDDMNLLDIFIEMEKRVILGEGKLDILKRVCAQINKSLLKIINDYEEFSKERSSSLEGSPDEFSNGEELCGVMTISDSPREQDSESQTLDKVYQMKSKPRGYCLIINNHNFAKAREKVPKLHSIRDRNGTHLDAGALTTTFEELHFEIKPHDDCTVEQIYEILKIYQLMDHSNMDCFICCILSHGDKGIIYGTDGQEAPIYELTSQFTGLKCPSLAGKPKVFFIQASQGDNYQKGIPVETDSEEQPYLEMDLSSPQTRYIPDEADFLLGMATVNNCVSYRNPAEGTWYIQSLCQSLRERCPRGDDILTILTEVNYEVSNKDDKKNMGKQMPQPTFTLRKKLVFPSD

Key:
mouse Fas-IC = molecular target: T1, mouse Fas-IC (Mus musculus, UniProt P25446); experiment: Two-hybrid test of MORT-1 binding (FIG. 1), mouse Fas-IC; conditions: transfected SFY526 yeasts
T1 construct: four constructs of the mouse Fas-IC; expressed in transfected cells; host or cells: SFY526 yeast
T1 sequence (P25446 187-327 limits assumed): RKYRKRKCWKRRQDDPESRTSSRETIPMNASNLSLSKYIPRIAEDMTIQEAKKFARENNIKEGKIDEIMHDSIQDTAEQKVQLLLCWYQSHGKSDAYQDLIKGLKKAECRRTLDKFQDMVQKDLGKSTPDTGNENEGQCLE
Description: To isolate proteins interacting with the intracellular domain of the FAS-R, the yeast two-hybrid system was used (Fields and Song, 1989). […] In this system, the genes for the candidate interacting proteins are cloned into separate expression vectors. In one expression vector, the sequence of the one candidate protein is cloned in phase with the sequence of the GAL4 DNA-binding domain to generate a hybrid protein with the GAL4 DNA-binding-domain, and in the other vector, the sequence of the second candidate protein is cloned in phase with the sequence of the GAL4 activation domain to generate a hybrid protein with the GAL4-activation domain. The two hybrid vectors are then co-transformed into a yeast host strain having a lacZ or HIS3 reporter gene under the control of upstream GAL4 binding sites. Only those transformed host cells (cotransformants) in which the two hybrid proteins are expressed and are capable of interacting with each other, will be capable of expressing the reporter gene. In the case of the lacZ reporter gene, host cells expressing this gene will become blue in color when X-gal is added to the cultures. […]
In FIG. 1, there is depicted the interaction of the proteins encoded by the Gal4 DNA binding domain and activation-domain constructs (pGBT9 and pGAD-GH) within transfected SFY526 yeasts as assessed by β-galactosidase expression filter assay. […]

MACHα1 (C360S) = molecular target: T2, MACHα1 (C360S) (Homo sapiens, UniProt Q14790, C360S); experiment: Two-hybrid β-galactosidase filter assay (FIG. 5), binding to MACHα1 (C360S); conditions: two hybrid test
T2 construct: expressed in transfected cells; host or cells: SFY526 yeast
Experimental: In FIG. 5, there is shown the results of the interaction of MORT-1 and MACH within transfected yeast cells. Briefly, MORT-1 and MACHβ1 and their deletion constructs, as well as MACHα1, a MACHα1 mutant in which the catalytic cysteine Cys360 is replaced by Ser (MACHα1 (C360S)) and the intracellular domain of human FAS-R (Fas-IC), were expressed within transfected SFY526 yeast in Gal4 DNA binding domain and activation domain constructs (pGBT9 and pGAD-GH). Their interaction was assessed by a β-galactosidase expression filter assay as described in Boldin et al (1995b). The results are presented in terms of the time required for the development of strong color. […] None of the inserts examined interacted with a number of tested negative controls, including the intracellular domains of human p55 TNF receptor, p75 TNF receptor and CD40, and lamin, cyclin D and ‘empty’ Gal4 vectors. MACHβ1 was cloned by two hybrid screening of a Gal4 AD-tagged human B cell library (Durfee et al, 1993) for proteins that bind to MORT-1, using the HF7c Yeast reporter strain. Except where otherwise indicated, all experimental procedures for the findings presented are as described above (see also Boldin et al, 1995). […] MACHβ1 also self-associated in the transfected yeast. […] Expression of MACHβ1 molecules in mammalian cells yielded a 34 kDa protein that bound to MORT-1 molecules co-expressed with it. […]

| Molecule | binding to mouse Fas-IC in two-hybrid test (mouse Fas-IC) | binding to MACHα1 (C360S) in transfected yeast (MACHα1 (C360S)) |
| --- | --- | --- |
| B1 | binds |  |
| B2 |  | bound |
